According to patent US20070265201A1 (published 2007):
Ends that are not written are not given here.

Assays:
Assay in all cases: GST pull-down, 35S-labeled in vitro translated probe, autoradiography
[1] = biological target: T1, C/EBPβ bZIP domain, in vitro translated radiolabeled probe (UniProt P17676 269-345, labeled with 35S methionine)
T1 construct: range 269-345; Residues 269-345 are stated for the bZIP expression vector in pcDNA3.1; also called bZIP region of NFIL6

[2] = biological target: T2, Cytomegalovirus (CMV) Immediate Early 2 protein (IE2), in vitro translated radiolabeled probe (human Cytomegalovirus (hCMV), UniProt P19893 1-580, labeled with 35S methionine)
T2 sequence: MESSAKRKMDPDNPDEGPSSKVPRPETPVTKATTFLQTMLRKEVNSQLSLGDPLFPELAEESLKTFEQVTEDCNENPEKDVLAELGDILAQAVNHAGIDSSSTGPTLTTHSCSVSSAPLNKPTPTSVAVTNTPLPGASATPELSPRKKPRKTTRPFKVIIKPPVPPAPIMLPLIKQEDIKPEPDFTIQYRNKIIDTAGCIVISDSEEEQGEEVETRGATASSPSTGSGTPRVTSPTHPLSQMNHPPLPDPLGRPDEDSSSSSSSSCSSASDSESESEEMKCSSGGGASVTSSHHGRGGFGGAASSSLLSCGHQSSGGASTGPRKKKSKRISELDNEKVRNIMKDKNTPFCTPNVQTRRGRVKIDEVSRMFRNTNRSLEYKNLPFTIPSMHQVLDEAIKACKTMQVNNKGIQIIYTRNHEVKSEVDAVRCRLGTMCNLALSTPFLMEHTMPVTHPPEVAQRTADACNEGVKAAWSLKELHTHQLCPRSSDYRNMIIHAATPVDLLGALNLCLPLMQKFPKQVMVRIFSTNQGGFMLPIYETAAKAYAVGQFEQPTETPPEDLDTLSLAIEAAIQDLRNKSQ

[3] = biological target: T3, Spi-1 ETS domain, in vitro translated radiolabeled probe (UniProt P17947 170-253)
T3 construct: domain: ETS domain; also called PU.1 ETS domain

Measured: binding result

T1 sequence (P17676 269-345 limits assumed): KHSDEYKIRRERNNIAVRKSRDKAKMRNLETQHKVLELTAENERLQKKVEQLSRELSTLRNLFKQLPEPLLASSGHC

B1: GST fusion of IE2 291-364 fragment with an internal deletion of residues 315-328 (delA) (other)
chain: SSHHGRGGFGGAASSSLLSCGHQSRISELDNEKVRNIMKDKNTPFCTPNVQTRRGRVKID
modifications: cysteine pairing not given here; also: GST fusion, linker and position not given here
notes: also called IE2 291-364Δ315-328; not shown: glutathione-S-transferase (GST) fusion partner
no binding: [1] | [2] | [3]
